# Reference: US11925667B2, “Engineered therapeutic probiotic system and method” (priority 2018, dated 2024)
# System: C=CC/C(=N/OS(=O)(=O)O)S[C@@H]1O[C@H](CO)[C@@H](O)[C@H](O)[C@H]1O
# Assay: Myrosinase activity assay (glucose release from sinigrin hydrolysis), TGG1
# Assay type: biochemical, Arabidopsis thaliana
# Procedure: Screening for improved β-thioglucosidase. The activity and stability of myrosinase, a β-thioglucosidase that hydrolyzes glucosinolate to sulforaphane, varies at differing pH and temperature; in a preferred embodiment the selected enzyme needs to function under physiological colorectal conditions. The healthy colon pH averages 6.6, while it is 7.0 and 6.7 in patients with adenoma and carcinoma, respectively. In addition, the temperature of the human intestinal tract ranges from 36° C. to 40° C. depending on the individual's metabolic state. In the illustrative example five plant-derived myrosinase orthologues with minimal glycosylation sites and the absence of the co-factor-binding sites using the BLAST search and the Enzyme Function Initiative-Enzyme Similarity Tool (EFI-EST), are compared to the well-characterized myrosinases from Brevicoryne brassicae (BMY1) and Arabidopsis thaliana (TGG1) (FIG. 2a and FIG. 7).
# Gene cloning, protein expression and purification. Myrosinase genes are optimized for E. coli expression and cloned into the pET28b expression vector. The plasmids are transformed into E. coli BL21 (DE3) cultured in lysogeny broth (LB) (BD, Le Pont de Claix, France) at 37° C., 225 rpm to OD600 0.6 followed by 0.5 mM isopropyl β-D-1-thiogalactopyranoside (IPTG) induction at 16° C., 180 rpm for 16 hours. Cells are harvested, resuspended in lysis buffer (50 mM Tris-Cl, 300 mM NaCl, 10% glycerol, 1 mM dithiothreitol [DTT], pH 8.0) and lysed using Emulsiflex C-3 (Avestin). Expressed myrosinases are purified by IMAC Ni-NTA purification followed by Hi-Load Superdex 200 size exclusion column chromatography (GE, Uppsala, Sweden). The purified protein is concentrated and stored at −80° C. Pilot scale protein purification and enzymatic assay is conducted.
# Myrosinase screening assay. The enzymatic reaction is measured for the release of glucose resulting from sinigrin hydrolysis. The reaction is conducted in sodium phosphate-buffered solution supplied in the Amplex® Red Glucose/Glucose Oxidase Assay Kit (Thermo Fisher Scientific, Geel, Belgium). The reaction buffer is prepared at different pH values (6.0, 6.5, 7.4 and 8.0) and at different reaction temperatures (34° C., 37° C., and 40° C.). The reaction is prepared using 0.1 μM purified myrosinase added to 1× Amplex® Red Glucose Assay reaction mixture and was kick-started with the corresponding concentration of sinigrin. The reaction can be measured at 560 nm absorbance and fluorescence (λex=540 nm, λem=590 nm) using a Synergy H1 Multi-Mode microtiter plate reader (BioTek®, Winooski, USA). The reaction initial velocity (VO) is determined and fitted into a Michaelis-Menten curve. Vmax and KM are determined by fitting into the Michaelis-Menten equation (Eq. 1) using GraphPad Prism Software. ^v=Vmax*[Sinigrin]/(KM+[Sinigrin]) (Eq.1)
# Table S1|Myrosinase activity assay screening under various pH and temperature conditions (n=3 independent experiments, each measurement performed in triplicates; mean[…].).
substance,measurement,setting,value
Arabidopsis thaliana myrosinase TGG1 (Arabidopsis thaliana),Km,"other: pH 6.0, 37° C., pH 6.0, 37.0 °C",361 ± 11 µM
same,Km,"other: pH 6.5, 37° C., pH 6.5, 37.0 °C",198 ± 20 µM
same,Km,"other: pH 7.4, 34° C., pH 7.4, 34.0 °C",78 ± 8 µM
same,Km,"other: pH 7.4, 37° C., pH 7.4, 37.0 °C",71 ± 3 µM
same,Km,"other: pH 7.4, 40° C., pH 7.4, 40.0 °C",88 ± 9 µM
same,Km,"other: pH 8.0, 37° C., pH 8.0, 37.0 °C",137 ± 69 µM
